Reference: article PMC5353710, “Structural insights into the γ-lactamase activity and substrate enantioselectivity of an isochorismatase-like hydrolase from Microbacterium hydrocarbonoxydans” (Scientific Reports, 2017)

Target: isochorismatase-like hydrolase Mh33H4-5540 from Microbacterium hydrocarbonoxydans (Microbacterium hydrocarbonoxydans)
Assay: SEC; gel filtration of purified MhIHL (Supplementary Fig. S1); conditions of this run not told in the main text

isochorismatase-like hydrolase Mh33H4-5540 from Microbacterium hydrocarbonoxydans (enzyme)
stoichiometry N: 2
